Laboratory results reported in publication PMC7486241 (Cell Host & Microbe, 2020).
Like-named read-outs stand apart in the source and are kept apart here.

Key:
[1] = molecular target: T1, recombinant HA of H1N1 A/California/04/2009, biotinylated (Influenza A virus A/California/04/2009 …, UniProt C3W5S1, strain, biotin)
[2] = molecular target: T2, recombinant HA of H5N1 A/Indonesia/05/2005, biotinylated (Influenza A virus A/Indonesia/05/2005 …, UniProt C5MRF2, strain, biotin)
[3] = molecular target: T1, recombinant HA of H1N1 …; test: Meso Scale Discovery (MSD) electrochemiluminescence binding assay; conditions: both partners purified
[4] = molecular target: H9N2 A/Hongkong/1073/1999 hemagglutinin (HA), biotinylated recombinant (influenza A virus A/Hongkong/1073/1999 …, biotin); test: BLI; conditions: both partners purified
[5] = molecular target: T2, recombinant HA of H5N1 …; test: Meso Scale Discovery (MSD) electrochemiluminescence binding assay; conditions: both partners purified
[6] = molecular target: H7N9 A/Shanghai/02/2013 hemagglutinin (HA), biotinylated recombinant (Influenza A virus A/Shanghai/02/2013 …, UniProt R4NN21, biotin); test: BLI; conditions: both partners purified
[7] = molecular target: H3N2 A/Texas/50/2012 hemagglutinin (HA), biotinylated recombinant (influenza A virus A/Texas/50/2012 (H3N2), biotin); test: BLI; conditions: both partners purified
[8] = molecular target: recombinant HA of H7N9 A/Shanghai/02/2013, biotinylated (Influenza A virus A/Shanghai/02/2013 …, UniProt R4NN21, strain, biotin); test: Meso Scale Discovery (MSD) electrochemiluminescence binding assay; conditions: both partners purified
[9] = molecular target: T3, HA ectodomain of A/California/04/2009 (H1N1), cleaved mature HA (HA1/HA2) (influenza A virus A/California/04/2009 …); test: crystal structure; conditions: both partners purified
T3 construct: copies: 3 + 3

[10] = molecular target: recombinant HA of H3N2 A/Texas/50/2012, biotinylated (Influenza A virus A/Texas/50/2012 (H3N2), UniProt R4L1D1, strain, biotin); test: Meso Scale Discovery (MSD) electrochemiluminescence binding assay; conditions: both partners purified
[11] = molecular target: T4, recombinant HA of H3N2 A/Hongkong/1/1968, biotinylated (Influenza A virus A/Hong Kong/1/1968 …, UniProt Q91MA7, strain, biotin); test: as above; conditions: both partners purified
T4 construct: source: plasmid pCMV/R-HA-AviHis, Andrews et al., 2017

[12] = molecular target: recombinant HA of H1N1 A/New Caledonia/20/1999, biotinylated (Influenza A virus A/New …, UniProt Q6WG00, strain, biotin); test: as above; conditions: both partners purified
[13] = molecular target: recombinant HA of H9N2 A/Hongkong/1073/1999, biotinylated (Influenza A virus A/Hong Kong/1073/1999 …, UniProt Q9ICY5, strain, biotin); test: as above; conditions: both partners purified

B1: 54-1B01 (antibody, V domains shown)
VH: QVQLQQSGPGVVKPSQSLALTCAISGDSVSNDRVAWIWIRQSPSRGLEWLGRTYYRSKWYNDYANSVRGRMTINPDTSKNQFSLNLDSVTPDDTAVYYCARGMIFGRPLTGWYFDFWGRGTLVTVSS
VL: EIVLTQSPGTLSLSAGERVTLFCRASQHVSSGYLAWYQQKPGQAPRLLIYGATNRATGIPDRFSGSGSGTDFALTISRLEPEDFAVYYCQQFDSSSMYTFGQGTKLEIK
B1: binds [1]; binds [2].

B2: early intermediate of clonotype A, IgG (antibody, V domains shown)
VH: QVQLQQSGPGLVKPSQTLSLTCAISGDSVSSNSAAWNWIRQSPSRGLEWLGRTYYRSKWYNDYAVSVKSRITINPDTSKNQFSLQLNSVTPEDTAVYYCARGMIFNWPLGGWSFDLWGRGTLVTVSS
VL: EIVLTQSPGTLSLSPGERATLSCRASQSVSSSYLAWYQQKPGQAPRLLIYGASSRATGIPDRFSGSGSGTDFTLTISRLEPEDFAVYYCQQFDSSSMYTFGQGTKLEIK
B2: binds [3].

B3: 54-1G07 Fab (Fab, V domains shown)
VH: QVQLQQSGPGLVKPSQTLALTCGISGDTVSNNRVAWNWIRQSPSRGLEWLGRTYYRSKWYSDYSKSVTGRMTINPDTSKNQFSLHLDSVTPADTAVYYCARGMIFGWPLTGWYFDLWGRGTLVTVSS
VL: EIVLTQSPGTLSLSPGERVTLLCRASHHVSSGYLAWYQQKPGQAPRLLIYGATNRATGIPDRFSGSGSGTDFALTISRLEPEDFAVYYCQQFDSSSMYTFGQGTKLEIK
B3: no binding (tested: 3200 nM (highest Fab concentration)) [4].

B4: 54-1G07 (clonotype A), IgG (antibody, V domains shown)
VH: QVQLQQSGPGLVKPSQTLALTCGISGDTVSNNRVAWNWIRQSPSRGLEWLGRTYYRSKWYSDYSKSVTGRMTINPDTSKNQFSLHLDSVTPADTAVYYCARGMIFGWPLTGWYFDLWGRGTLVTVSS
VL: EIVLTQSPGTLSLSPGERVTLLCRASHHVSSGYLAWYQQKPGQAPRLLIYGATNRATGIPDRFSGSGSGTDFALTISRLEPEDFAVYYCQQFDSSSMYTFGQGTKLEIK
notes: IgG format
B4: binds [3]; binds [5].

B5: 58-6E11 Fab (Fab, V domains shown)
VH: QVQLPQSGPGLVKPSQTLSLTCAISGDSVSSNSAVWTWIRQSPSRGLEWLGRTYYRSKWYNDYAVSVESRITINPDTSKNQFSLQLKSVTPEDTAVYFCARSGITIFGVSVMAMDIWGQGTTVIVSS
VL: EIVLTQSPGTLSLSPGERATLSCRASQNVAVSYLAWYQQKPGQPPRLLIYGASSRATGIPGRFTGSGSGTDFTLTINRLEPEDSAVYYCQQYATSPRALTFGGGTKVEIK
B5: no binding (tested: 3200 nM (highest Fab concentration)) [6]; no binding (tested: 3200 nM (highest Fab concentration)) [7]; no binding (tested: 3200 nM (highest Fab concentration)) [4].

B6: ClonB UCA Fab (Fab, V domains shown)
VH: QVQLQQSGPGLVKPSQTLSLTCAISGDSVSSNSAVWTWIRQSPSRGLEWLGRTYYRSKWYNDYAVSVKSRITINPDTSKNQFSLQLKSVTPEDTAVYYCARSGITIFGVIIMAMDIWGQGTTVTVSS
VL: EIVLTQSPGTLSLSPGERATLSCRASQNVAVSYLAWYQQKPGQPPRLLIYGASSRATGIPDRFTGSGSGTDFTLTINRLEPEDSAVYYCQQYGSSPRALTFGGGTKVEIK
notes: also called early intermediate of clonotype B; EI (clonotype B)
B6: no binding (tested: 3200 nM (highest Fab concentration)) [7]; no binding (tested: 3200 nM (highest Fab concentration)) [4].

B7: early intermediate of clonotype B, IgG (antibody, V domains shown)
VH: QVQLQQSGPGLVKPSQTLSLTCAISGDSVSSNSAVWTWIRQSPSRGLEWLGRTYYRSKWYNDYAVSVKSRITINPDTSKNQFSLQLKSVTPEDTAVYYCARSGITIFGVIIMAMDIWGQGTTVTVSS
VL: EIVLTQSPGTLSLSPGERATLSCRASQNVAVSYLAWYQQKPGQPPRLLIYGASSRATGIPDRFTGSGSGTDFTLTINRLEPEDSAVYYCQQYGSSPRALTFGGGTKVEIK
B7: binds [3].

B8: 54-1G05 VL early intermediate, IgG (54-1G05 VH paired with VL from the early intermediate of clonotype B) (antibody, V domains shown)
VH: QVQLQQSGPRLVKPSQTLSLTCAISGDSVSSSSAVWTWIRQSPSRGLEWLGRTYYRSKWYDDYAVSVQGRITINPDTSKNQISLQLNSVTPDDTAVYYCARSSINIFGVFVMAMDVWGQGTAVTVSS
VL: EIVLTQSPGTLSLSPGERATLSCRASQNVAVSYLAWYQQKPGQPPRLLIYGASSRATGIPDRFTGSGSGTDFTLTINRLEPEDSAVYYCQQYGSSPRALTFGGGTKVEIK
notes: IgG format
B8: binds [8].

B9: 54-4H03 Fab (Fab, V domains shown)
VH: QVQLQQSGPGLVKPSQTLSLTCAISGDSVSSNSVAWNWIRQSPSRGLEWLGRTYFRSKWYTDYAESLKSRMTINPDTSKNEFSLHLKSVTSDDTAVYYCVRGIIFNWPLGGWSFDLWGRGTLVSVSS
VL: EIVLTQSPGTLSLSPGDSATLSCRASQSVASSYLAWYQQKPGQSPRLLIYATINRAADIPDRFSGSGSGTDFALTISRLEPEDFAVYYCQQFDSSSMYTFGQGTKLEIT
B9: binds [9].

B10: 54-4H03 VH G100cT/S100fY, IgG (54-4H03 light chain) (antibody, V domains shown)
VH: QVQLQQSGPGLVKPSQTLSLTCAISGDSVSSNSVAWNWIRQSPSRGLEWLGRTYFRSKWYTDYAESLKSRMTINPDTSKNEFSLHLKSVTSDDTAVYYCVRGIIFNWPLTGWYFDLWGRGTLVSVSS
VL: EIVLTQSPGTLSLSPGDSATLSCRASQSVASSYLAWYQQKPGQSPRLLIYATINRAADIPDRFSGSGSGTDFALTISRLEPEDFAVYYCQQFDSSSMYTFGQGTKLEIT
B10: no binding [8]; no binding [5].

B11: 54-4H03 (clonotype A), IgG (antibody, V domains shown)
VH: QVQLQQSGPGLVKPSQTLSLTCAISGDSVSSNSVAWNWIRQSPSRGLEWLGRTYFRSKWYTDYAESLKSRMTINPDTSKNEFSLHLKSVTSDDTAVYYCVRGIIFNWPLGGWSFDLWGRGTLVSVSS
VL: EIVLTQSPGTLSLSPGDSATLSCRASQSVASSYLAWYQQKPGQSPRLLIYATINRAADIPDRFSGSGSGTDFALTISRLEPEDFAVYYCQQFDSSSMYTFGQGTKLEIT
B11: binds [8]; binds [3].

B12: 54-1G05 (clonotype B), IgG (antibody, V domains shown)
VH: QVQLQQSGPRLVKPSQTLSLTCAISGDSVSSSSAVWTWIRQSPSRGLEWLGRTYYRSKWYDDYAVSVQGRITINPDTSKNQISLQLNSVTPDDTAVYYCARSSINIFGVFVMAMDVWGQGTAVTVSS
VL: EIVLTQSPGTLSLSPGERVTLSCRASQTVYNSYLAWYQQKPGQAPTLLIYGTSTRATGVPDRFSGSGSGTVFTLTISRLEPEDFAVYFCQQYSTSPRALTFGGGTKVEIK
notes: source: Expi293 cells, transfected, purified from the supernatant (Protein A)
B12: binds [8]; binds [10]; binds [3]. B12: binds [11]; binds [12]; binds [5]. B12: binds [13].
